Experimental data reported in the supplement of paper PMC10567573.

B1: FUNDC2 (parent)
chain: YIKVDWQRVEKDMKKAKEQLKIRK
B2: NEK8 (parent)
chain: VTIKHVACGDFFTACLTDRGIIMT

Variants of: B1
Experiment: protein stability index of a GFP-peptide fusion (GPS, HEK-293T) (PSI 1-6); higher = more stable
Conditions: c terminus: a fixed tail appended
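Further: lentivirally expressed fusions sorted by FACS into six bins by GFP to DsRed ratio, PSI derived from sequencing read proportions per bin multiplied by bin number.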

Protein stability index: each site, then its substitutions
I2: Y 3 | Q 1.75 | P 2.54 | T 2.37 | C 1.93 | D 3.58 | E 4.42 | F 2.74 | K 3.35
K3: G 2.54 | I 1.73 | Y 3.14 | R 2.18 | W 2.09 | E 2.4 | H 1.39 | M 1.91
E10: N 1.62 | G 1.09 | F 1.78 | A 1.92 | Y 1.79 | T 2.36 | L 1.65 | D 1.85 | S 2.33 | R 1.27 | H 2.58 | W 1.56
E18: D 1.44 | Y 1.84 | F 1.65 | P 2.48 | S 2.46 | I 2.41
Y1: K 3.09 | H 3.34 | S 3.11 | R 3.6 | T 3.07 | P 3.81 | Q 3.49 | E 4.15 | W 1.99
D5: C 1.03 | P 2.21 | W 3.34 | L 2.48 | T 2.29 | M 2.46 | S 1.47 | F 2.33 | E 1.52
K21: N 1.91 | Q 1.62 | M 1.96 | Y 2.5 | L 1.71 | H 1.74 | V 2.19 | W 2.06 | G 2.13
K24: Y 1.38 | S 1.67 | V 2.61 | D 2.02 | G 1.85 | F 1.52 | M 1.31 | P 1.6
M13: G 2.32 | L 1.63 | S 2.21 | N 2.3 | K 1.92 | R 2.29 | I 1.89 | Y 2.14 | F 1.79 | Q 1.82 | W 2.29
A16: T 1.89 | D 1.78 | L 1.95 | R 2.08 | C 2.08 | E 1.43
V4: C 1.56 | L 2.23 | T 1.71 | G 2.36 | H 2.52 | N 2.13 | S 2.25 | Q 1.83
K11: S 1.97 | R 2.09 | H 1.95 | Q 2.12 | G 1.2 | N 2.59 | T 2.56 | P 2.5 | C 1.53
R8: S 1.96 | H 2.11 | M 2.35 | D 2.05 | Y 1.62 | N 1.79 | I 1.82 | E 2.15 | F 1.99
Q19: D 1.98 | Y 1.8 | V 1.19 | P 1.82 | N 1.81 | L 2.43 | K 1.32 | M 2.57 | H 1.33 | S 2.04
K15: Y 2.14 | W 1.94 | S 1.65 | Q 2.5 | L 2.19 | D 2.05 | T 2.11
L20: R 1.6 | M 1.32 | F 4.29 | K 1.59 | W 2.65 | C 2 | E 2.4 | D 1.77
V9: N 2.37 | T 1.66 | C 1.94 | H 1.61 | G 1.95 | F 1.54 | K 2.45 | R 1.73 | D 2.62 | M 1.26
K17: W 1.66 | R 2.27 | D 1.67 | N 1.95 | G 2.69 | L 2.21
Q7: H 1.45 | C 2.41 | L 2.01 | E 1.92 | I 2.7 | P 1.37 | V 2.33 | R 1.43 | F 2.84
D12: H 1.03 | G 2.68 | V 3.62 | N 1.47 | L 2.8 | Q 2.63
W6: G 2.81 | H 2.83 | T 2.97 | Q 2.71 | D 3.77 | R 2.97 | C 2.64 | S 3.31 | I 2.47 | E 2.91 | K 3.09
K14: V 1.92 | E 1.42 | P 1.86 | H 1.14 | F 1.51 | S 2.03 | C 1.83
I22: N 1.98 | Y 1.88 | H 1.88 | A 1.21 | Q 2.51 | P 1.49 | K 2.25 | D 1.92 | G 1.83 | T 1.57
R23: C 1.57 | M 1.97 | G 1.69 | A 2.08 | E 1.76 | H 1.9 | D 2.06

Variants of: B2
Experiment: as above
Conditions: c terminus: a fixed tail appended

Protein stability index: each site, then its substitutions
A7: C 1.98 | T 2.88 | Y 3.2 | P 1.72 | K 3.25 | M 2.95 | L 2.33 | I 2.61 | S 1.57 | E 2.69 | Q 3.77 | D 2.43
H5: S 3.48 | L 1.99 | R 3.65 | P 3.52 | I 4.16 | M 5.14 | F 2.88 | D 3.02 | W 2.46 | C 2.12 | T 3.55 | K 1.19
K4: T 2.17 | A 4.56 | L 3.2 | W 3.87 | V 1.74 | G 3.43 | F 2.88 | H 2.81 | E 1.58 | P 2.13 | D 2.87 | M 1.33 | Y 2.75 | S 2.57 | C 3.59 | R 2.47 | I 2.27 | N 2.03
V6: A 2.86 | I 3.76 | G 2.57 | S 2.55 | R 3.07 | H 2.85 | E 3.14 | L 2.85 | D 1.35 | F 2.71 | K 2.63 | T 2.61 | N 3.92 | Y 1.72 | W 4.09 | P 4.25
I3: Q 2.49 | N 2.55 | D 3.11 | V 2.27 | F 3.2 | Y 2.57 | A 1.28 | K 1.92 | R 2.22 | E 2.6 | S 2.69 | P 2.31 | H 2.67 | L 2.32 | G 2.58 | T 3.18
T2: I 2.48 | M 3.25 | K 2.06 | R 2.24 | F 3.64 | P 3.12 | D 2.1 | C 2 | W 2.38 | E 2.31 | G 3.03 | S 2.88 | Y 3.11
G9: D 3 | K 2.98 | H 2.74 | I 3.19 | E 2.66 | F 2.38 | M 3.93 | C 1.88 | A 2.32 | S 3.21 | T 3.5 | R 3.64
V1: M 3.97 | A 2.57 | T 1.54 | F 1.99 | W 4.31 | E 1.45 | G 3.39 | Q 1.59 | R 2.44 | I 2.71 | C 2.23 | H 2.87 | K 1.91 | P 1.33 | N 2.51 | S 3.58 | Y 3.81
C8: R 3.18 | A 3.3 | F 2.28 | V 2.48 | P 2.4 | W 2.41 | L 3.14 | E 3.57 | T 2.44 | D 3.33 | Y 3.47 | N 3.4 | I 2.51 | Q 3.4
